This is an account of results in US20250011379A1.

This assay addresses human C4b (human), P0C0L5. Kind of assay: cell-based or functional assay.

Chain of human C4b (human), P0C0L5 (P0C0L5 20-1744): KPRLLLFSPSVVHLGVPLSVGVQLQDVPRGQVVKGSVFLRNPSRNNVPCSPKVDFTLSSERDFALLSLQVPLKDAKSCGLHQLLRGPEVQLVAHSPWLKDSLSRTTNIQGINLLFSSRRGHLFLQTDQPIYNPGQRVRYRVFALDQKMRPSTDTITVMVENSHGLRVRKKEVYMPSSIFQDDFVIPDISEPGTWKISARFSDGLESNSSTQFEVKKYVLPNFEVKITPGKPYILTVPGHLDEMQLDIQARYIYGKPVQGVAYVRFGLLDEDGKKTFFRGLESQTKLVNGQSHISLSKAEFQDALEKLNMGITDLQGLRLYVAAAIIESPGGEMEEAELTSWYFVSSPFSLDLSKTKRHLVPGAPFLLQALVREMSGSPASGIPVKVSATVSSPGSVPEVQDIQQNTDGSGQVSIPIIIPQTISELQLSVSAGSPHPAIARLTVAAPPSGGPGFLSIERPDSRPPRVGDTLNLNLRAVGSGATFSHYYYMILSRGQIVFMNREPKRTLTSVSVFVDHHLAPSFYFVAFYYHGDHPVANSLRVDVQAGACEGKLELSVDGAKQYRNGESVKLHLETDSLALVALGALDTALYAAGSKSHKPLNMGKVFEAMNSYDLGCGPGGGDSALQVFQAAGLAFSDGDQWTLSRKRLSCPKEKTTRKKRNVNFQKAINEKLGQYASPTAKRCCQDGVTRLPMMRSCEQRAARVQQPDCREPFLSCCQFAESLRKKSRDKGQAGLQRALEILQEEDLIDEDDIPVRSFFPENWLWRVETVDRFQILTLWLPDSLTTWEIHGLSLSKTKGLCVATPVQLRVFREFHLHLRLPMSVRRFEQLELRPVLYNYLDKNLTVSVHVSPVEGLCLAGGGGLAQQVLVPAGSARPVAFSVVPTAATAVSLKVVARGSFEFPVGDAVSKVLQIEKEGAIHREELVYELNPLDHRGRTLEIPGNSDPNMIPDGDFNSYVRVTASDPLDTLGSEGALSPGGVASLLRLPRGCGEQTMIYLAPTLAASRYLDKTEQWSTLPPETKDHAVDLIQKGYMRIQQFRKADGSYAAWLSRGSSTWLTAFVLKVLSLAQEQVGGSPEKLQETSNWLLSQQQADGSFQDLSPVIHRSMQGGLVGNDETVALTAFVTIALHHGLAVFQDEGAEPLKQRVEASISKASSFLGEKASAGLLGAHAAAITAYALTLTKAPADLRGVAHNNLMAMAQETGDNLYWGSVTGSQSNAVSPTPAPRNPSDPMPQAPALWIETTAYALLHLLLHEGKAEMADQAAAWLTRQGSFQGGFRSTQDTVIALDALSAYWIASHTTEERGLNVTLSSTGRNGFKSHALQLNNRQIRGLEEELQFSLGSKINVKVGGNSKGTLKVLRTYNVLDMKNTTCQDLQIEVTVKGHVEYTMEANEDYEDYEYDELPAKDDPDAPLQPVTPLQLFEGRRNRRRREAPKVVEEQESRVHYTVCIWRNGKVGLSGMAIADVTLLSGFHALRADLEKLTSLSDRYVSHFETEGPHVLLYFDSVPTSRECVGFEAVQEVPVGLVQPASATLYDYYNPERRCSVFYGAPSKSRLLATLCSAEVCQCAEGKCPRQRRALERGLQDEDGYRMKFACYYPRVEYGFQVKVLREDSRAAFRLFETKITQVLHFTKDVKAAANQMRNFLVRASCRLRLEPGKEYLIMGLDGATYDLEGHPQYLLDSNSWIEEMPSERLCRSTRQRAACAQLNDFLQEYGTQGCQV

B1: Const. No. 94: hCFI-PD (wild type plasma-derived human CFI), P05156 19-583 (enzyme)
chain: KVTYTSQEDLVEKKCLAKKYTHLSCDKVFCQPWQRCIEGTCVCKLPYQCPKNGTAVCATNRRSFPTYCQQKSLECLHPGTKFLNNGTCTAEGKFSVSLKHGNTDSEGIVEVKLVDQDKTMFICKSSWSMREANVACLDLGFQQGADTQRRFKLSDLSINSTECLHVHCRGLETSLAECTFTKRRTMGYQDFADVVCYTQKADSPMDDFFQCVNGKYISQMKACDGINDCGDQSDELCCKACQGKGFHCKSGVCIPSQYQCNGEVDCITGEDEVGCAGFASVTQEETEILTADMDAERRRIKSLLPKLSCGVKNRMHIRRKRIVGGKRAQLGDLPWQVAIKDASGITCGGIYIGGCWILTAAHCLRASKTHRYQIWTTVVDWIHPDLKRIVIEYVDRIIFHENYNAGTYQNDIALIEMKKDGNKKDCELPRSIPACVPWSPYLFQPNDTCIVSGWGREKDNERVFSLQWGEVKLISNCSKFYGNRFYEKEMECAGTYDGSIDACKGDSGGPLVCMDANNVTYVWGVVSWGENCGKPEFPGVYTKVANYFDWISYHVGRPFISQYNV
With B1, the C4c EC50 is 412 nM.

B2: Const. No. 96: hCFI (wt hCFI, no signal sequence, no HSA), P05156 19-583 (enzyme)
chain: KVTYTSQEDLVEKKCLAKKYTHLSCDKVFCQPWQRCIEGTCVCKLPYQCPKNGTAVCATNRRSFPTYCQQKSLECLHPGTKFLNNGTCTAEGKFSVSLKHGNTDSEGIVEVKLVDQDKTMFICKSSWSMREANVACLDLGFQQGADTQRRFKLSDLSINSTECLHVHCRGLETSLAECTFTKRRTMGYQDFADVVCYTQKADSPMDDFFQCVNGKYISQMKACDGINDCGDQSDELCCKACQGKGFHCKSGVCIPSQYQCNGEVDCITGEDEVGCAGFASVTQEETEILTADMDAERRRIKSLLPKLSCGVKNRMHIRRKRIVGGKRAQLGDLPWQVAIKDASGITCGGIYIGGCWILTAAHCLRASKTHRYQIWTTVVDWIHPDLKRIVIEYVDRIIFHENYNAGTYQNDIALIEMKKDGNKKDCELPRSIPACVPWSPYLFQPNDTCIVSGWGREKDNERVFSLQWGEVKLISNCSKFYGNRFYEKEMECAGTYDGSIDACKGDSGGPLVCMDANNVTYVWGVVSWGENCGKPEFPGVYTKVANYFDWISYHVGRPFISQYNV
In turn, B2 gave a C4c EC50 of 340 nM.
